In publication PMC6650080, “A novel Ca2+-binding protein that can rapidly transduce auxin responses during root growth” (PLoS Biology, 2019):

Columns and labels:
His6-ICR1 = target: T1, His6-ICR1 (Arabidopsis, UniProt Q8LE98 1-344); experiment: co-IP; purified His6-CMI1 and His6-ICR1, 1 μg each, 300 μL reaction buffer (20 mM Tris-HCl pH 7.5, 5 mM CaCl2, 0.1 mg/mL BSA, 200 mM NaCl, 1% Triton X-100), RT; anti-CMI1 antibodies and Protein A beads; blot with anti-poly-His; conditions: both partners purified
T1 construct: ICR1, Arabidopsis; also called His-ICR1; source: E. coli Rosetta (DE3), purified (Ni-NTA)
T1 sequence (looked up): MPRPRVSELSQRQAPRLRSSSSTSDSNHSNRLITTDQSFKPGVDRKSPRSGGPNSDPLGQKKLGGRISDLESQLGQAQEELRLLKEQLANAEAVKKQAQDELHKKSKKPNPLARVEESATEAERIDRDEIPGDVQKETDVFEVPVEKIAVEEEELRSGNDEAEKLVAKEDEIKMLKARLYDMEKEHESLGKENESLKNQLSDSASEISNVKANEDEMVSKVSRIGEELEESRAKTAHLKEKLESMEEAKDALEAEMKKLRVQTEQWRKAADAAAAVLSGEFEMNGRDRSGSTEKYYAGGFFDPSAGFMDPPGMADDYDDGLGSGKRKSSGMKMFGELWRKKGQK

GST-ICR1 = target: T2, GST-ICR1 (Arabidopsis, UniProt Q8LE98 1-344); experiment: pull-down; GST-ICR1 (1.2 μg) or GST (0.4 μg) on Glutathione sepharose, His6-CMI1 0.5 μg; 20 mM Tris-HCl pH 7.5, 5 mM CaCl2, 0.1 mg/mL BSA, 200 mM NaCl, 1% Triton X-100, RT; wash with 1 M NaCl; blot with anti-poly-His; conditions: both partners purified
T2 construct: ICR1, Arabidopsis; also called glutathione S-transferase (GST)-ICR1; source: E. coli Rosetta (DE3), purified (Glutathione sepharose)
T2 sequence (looked up): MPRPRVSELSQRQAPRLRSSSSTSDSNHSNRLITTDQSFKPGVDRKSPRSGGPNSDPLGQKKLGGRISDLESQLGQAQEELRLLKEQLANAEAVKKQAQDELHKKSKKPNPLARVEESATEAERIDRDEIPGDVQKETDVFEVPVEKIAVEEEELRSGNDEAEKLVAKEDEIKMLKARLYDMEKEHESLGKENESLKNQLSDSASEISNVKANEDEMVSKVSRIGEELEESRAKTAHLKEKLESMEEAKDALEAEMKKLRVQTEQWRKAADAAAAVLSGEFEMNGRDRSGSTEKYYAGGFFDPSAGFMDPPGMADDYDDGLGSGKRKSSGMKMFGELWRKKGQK

B1: His6-CMI1 (natural protein, Arabidopsis, UniProt O81831 1-130, looked up)
chain: MASPKSPTRPTQQNPQPNFHDFLPTMAGNLGGEGLIGELCNGFELLMDREKGVITFESLRRNAAAVLGLGDLTDEDVRCMIKEGDFDCDGALNQMEFCVLMFRLSPDLMEASRCLVTEVIEEEFGFTRRH
notes: CMI1, Arabidopsis, At4g27280; also called His-CMI1; source: E. coli Rosetta (DE3), purified (Ni-NTA)
- binding result (His6-ICR1): binds
- binding result (GST-ICR1): binds
